In article PMC3057111 one finds Kd data, which are given here for 1 molecule.

Series [1] deals with T1, hnRNPLL RRM1 V136D (thunder) (Mus musculus, UniProt Q921F4 109-213, V136D).
T1 sequence: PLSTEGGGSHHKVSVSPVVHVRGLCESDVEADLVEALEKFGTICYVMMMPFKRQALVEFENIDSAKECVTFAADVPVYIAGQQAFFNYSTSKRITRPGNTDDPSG
Put plainly: NMR titration.

The target of series [2] is T1, hnRNPLL RRM1 V136D (thunder). Put plainly: NMR titration. The source holds these as a separate data set.
Series [3] deals with T2, hnRNPLL RRM1 WT (Mus musculus, UniProt Q921F4 109-213).
T2 sequence: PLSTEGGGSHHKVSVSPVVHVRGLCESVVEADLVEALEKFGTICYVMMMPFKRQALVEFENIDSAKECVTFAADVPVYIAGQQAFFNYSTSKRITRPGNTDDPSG
Put plainly: NMR titration.

For series [4], the target named is T1, hnRNPLL RRM1 V136D (thunder). The series is described as follows: NMR titration. This is another data set of the same source.
Series [5] deals with T2, hnRNPLL RRM1 WT. The series is described as follows: NMR titration. The source holds these as a separate data set.
Series [6] addresses T2, hnRNPLL RRM1 WT. The series is described as follows: ITC.
Series [7] addresses T1, hnRNPLL RRM1 V136D (thunder). The series is described as follows: ITC.
Series [8] addresses T2, hnRNPLL RRM1 WT. The series is described as follows: NMR titration. This is another data set of the same source.

For CCUUACCUGCACGCA (ssRNA) [Ptprc exon 6 ARS 15-mer WT], the Kd in series [1] stood at 2000 ± 700 nM; in series [2], 1100 ± 400 nM; in the series with hnRNPLL RRM1 WT [3], 100 nM; in series [4] it was 1000 ± 400 nM; with hnRNPLL RRM1 WT [5] it was 700 ± 700 nM; in the series with hnRNPLL RRM1 WT [6], 1900 ± 400 nM. For the same molecule, the dissociation constant Kd is 3100 ± 1400 nM in series [7] and 1500 ± 1300 nM in the series with hnRNPLL RRM1 WT [8].
